The record followed here is patent US20250257143A1.

The assay deals with beta gamma receptor (CD122/CD132) for IL2 and IL15 on a reporter cell line (UniProt P14784).
Sequence of beta gamma receptor (CD122/CD132) for IL2 and IL15 on a reporter cell line (P14784 27-551 limits assumed, chain 1 of 2): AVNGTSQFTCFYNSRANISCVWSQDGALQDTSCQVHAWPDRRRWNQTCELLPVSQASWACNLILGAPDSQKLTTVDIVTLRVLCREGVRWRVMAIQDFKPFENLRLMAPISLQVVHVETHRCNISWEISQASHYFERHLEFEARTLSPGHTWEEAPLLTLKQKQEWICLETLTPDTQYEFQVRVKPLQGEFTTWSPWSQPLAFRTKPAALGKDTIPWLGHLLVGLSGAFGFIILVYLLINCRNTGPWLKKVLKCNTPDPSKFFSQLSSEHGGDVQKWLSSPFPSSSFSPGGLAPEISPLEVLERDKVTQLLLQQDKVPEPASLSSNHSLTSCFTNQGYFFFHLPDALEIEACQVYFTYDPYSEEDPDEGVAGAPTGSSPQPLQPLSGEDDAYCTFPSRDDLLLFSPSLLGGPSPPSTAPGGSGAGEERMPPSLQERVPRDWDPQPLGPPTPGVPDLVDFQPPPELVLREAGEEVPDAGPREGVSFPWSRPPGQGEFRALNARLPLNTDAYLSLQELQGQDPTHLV
Sequence of beta gamma receptor (CD122/CD132) for IL2 and IL15 on a reporter cell line (P31785 23-369 limits assumed, chain 2 of 2, further chain): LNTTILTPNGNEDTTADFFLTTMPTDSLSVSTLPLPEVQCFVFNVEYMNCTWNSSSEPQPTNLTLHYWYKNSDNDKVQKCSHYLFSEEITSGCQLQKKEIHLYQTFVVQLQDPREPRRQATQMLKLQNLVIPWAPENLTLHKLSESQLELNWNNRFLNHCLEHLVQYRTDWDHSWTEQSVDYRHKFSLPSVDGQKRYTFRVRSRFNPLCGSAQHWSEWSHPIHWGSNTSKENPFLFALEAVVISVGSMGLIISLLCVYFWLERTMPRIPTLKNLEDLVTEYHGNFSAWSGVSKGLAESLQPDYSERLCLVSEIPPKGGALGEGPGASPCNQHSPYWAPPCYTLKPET

As to “anti-human CD122 antibody Clone TU27 (BioLegend, Catalog #339015)”, the IC50, inhibition of the IL2 (12.5 ng/mL)-driven luciferase signal (RLUs) in βγ-receptor reporter cells worked out at 0.0757 µg/mL and the IC50, inhibition of the IL15 (6 ng/mL)-driven luciferase signal (RLUs) in βγ-receptor reporter cells was found to be 0.6 µg/mL.
